According to paper PMC6733935, “A convenient and efficient total solid-phase synthesis of DOTA-functionalized tumor-targeting peptides for PET imaging of cancer” (EJNMMI Research, 2019):
Square brackets hold non-standard residues; d marks the D form. Peptide text beside a SMILES is read from it. * marks the point of attachment. DOTA = O=C(O)CN1CCN(CC(=O)O)CCN(CC(=O)*)CCN(CC(=O)O)CC1; Cha = N[C@@H](CC1CCCCC1)C(=O)O; 4Abz = Nc1ccc(C(=O)O)cc1; Nle = CCCC[C@H](N)C(=O)O; Ahx = NCCCCCC(=O)O

What was measured:
[1] = format: physicochemical
Method: For lipophilicity determination, each HPLC-purified radiopeptide (~ 20 μL, ∼ 25 μCi) was added into a glass tube containing an equal volume mixture of n-octanol and water (1 mL each). The samples were vigorously vortexed for 5 min and subsequently centrifuged (5000 rpm, 5 min) to yield two immiscible layers. Duplicate samples (100 μL) from each layer were carefully taken (to avoid cross-contamination between the layers) for radioactivity measurement using a γ-counter. Partition coefficient was determined by the function: partition coefficient = Log10 (radioactivity in octanol layer/radioactivity in aqueous layer).

in vivo [2] = assay: in vivo; design: species or system Balb/c mice; conditions: Balb/c, mouse, iv
Method: Approval for the animal protocol used in this study was obtained from the Institutional Animal Care and Use Committee. Animal studies were conducted according to the international regulations governing the safe and proper use of laboratory animals. In vivo biodistribution were performed on healthy Balb/c mice (n = 3–5 in each group, body weight 19–22 g) at 1 and 2 h after intravenous injection of the HPLC-purified radiopeptide (100 μL, 15–20 μCi, total peptide dose ~ 20 ng) via the lateral tail vein. The mice were sacrificed by cervical dislocation at specified time points and blood samples were withdrawn with a syringe from the heart. Major organs such as lungs, stomach, spleen, pancreas, intestines, liver, kidneys, etc. were isolated, weighed, and radioactivity in each organs and tissues were measured using a γ-scintillation counter. Uptake of radioactivity in the tissues and organs was expressed as the percent injected dose per gram (% ID/g) of tissue/organ, which was calculated by comparison with standard solutions representing 10% of the injected dose per animal. For the clearance studies, radioactivity in the urine with bladder and feces is expressed as the percent of the injected dose per tissue (% ID). Values are expressed as mean ± SD for a group of 3-5 animals at each time point.

in vivo [3] = format: in vivo, nude mice; conditions: female, nude, mouse, in vivo, total radioactivity
Method: BN/GRP receptor-positive MDA-MB-231 and PC3 cell lines (American Type Culture Collection, Rockville, USA) were grown as monolayers at 37 °C in a humidified atmosphere containing RPMI-1640 culture media with 10% fetal bovine serum (FBS) in tissue culture flasks. Twenty-four hours prior to conducting the tumor implantation, the media was replaced with RPMI-1640/10% FBS. The cells were grown to 80-90% confluency and harvested by trypsinization. After centrifugation, about 50 million cells were suspended in 1 mL media for implantation into mice. To prepare cells for inoculation, MDA-MB-231 or PC3 cancer cells with media were centrifuged, the media decanted, and the cell pellet was mixed with phosphate-buffered saline (PBS) to reach a concentration of approximately 5 million cells per 100 μL PBS. Human MDA-MB-231 breast cancer xenografts female mouse models were used for in vivo tumor-targeting experiments. For the implantation of tumor xenografts, approximately five million MDA-MB-231 cells in suspension of 100 μL sterile PBS were injected subcutaneously into the left thigh of each mouse. Tumors were allowed to grow for 4-6 weeks by which tumors had reached weights of 200-300 mg. After sufficient growth of tumors, animals were injected with 20-30 μCi of the radiotracers and the animals were sacrificed at specified time points. The uptake of ^68Ga-radiolabeled peptides in the tumors and other major body organs was calculated by γ-counting as described above.

[4] = total radioactivity, %ID excreted in Feces
[5] = total radioactivity, Uptake in Bone
[6] = total radioactivity, Uptake in Intestines (measured without their contents)
[7] = total radioactivity, Uptake in Kidneys
[8] = total radioactivity, Uptake in Pancreas
[9] = total radioactivity, Uptake in Spleen
[10] = total radioactivity, Uptake in Stomach
[11] = Radioactivity in Urine + bladder
[12] = Uptake in Intestines (measured without their contents)

With CCCC[C@H](NC(=O)[C@H](Cc1c[nH]cn1)NC(=O)[C@H](CC1CCCCC1)NC(=O)[C@@H](NC(=O)[C@H](C)NC(=O)[C@H](Cc1c[nH]c2ccccc12)NC(=O)[C@H](CCC(N)=O)NC(=O)[C@H](CS)NC(=O)CNC(=O)CNC(=O)CCCCCNC(=O)CN1CCN(CC(=O)O)CCN(CC(=O)O)CCN(CC(=O)O)CC1)C(C)C)C(=O)N[C@@H](CCSC)C(N)=O [^68Ga-DOTA-Ahx-BN Tris-, metal not drawn] ({DOTA-Ahx}-GGCQWAV[Cha]H[Nle]M-NH2) the “Log P (octanol/water)” value [1] was “− 1.18 ± 0.06”, the “%ID excreted in Feces” value (in vivo [2]; 1 h) was 0.83 ± 0.19 %ID and the “%ID excreted in Urine” value (in vivo [2]; 1 h) was 74.0 ± 8.03 %ID. For the same compound, the “Uptake in Blood” value (in vivo [2]; 1 h) was 0.29 ± 0.05 %ID/g, the “Uptake in Bone” value (in vivo [2]; 1 h) was 0.17 ± 0.03 %ID/g and the “Uptake in Intestines (measured without their contents)” value (in vivo [2]; 1 h) was 0.67 ± 0.12 %ID/g. The “Uptake in Kidneys” value (in vivo [2]; 1 h) was 2.89 ± 0.41 %ID/g, the “Uptake in Liver” value (in vivo [2]; 1 h) was 1.12 ± 0.30 %ID/g and the “Uptake in Lungs” value (in vivo [2]; 1 h) was 0.36 ± 0.10 %ID/g. The “Uptake in Pancreas” value (in vivo [2]; 1 h) was 2.0 ± 0.27 %ID/g, the “Uptake in Spleen” value (in vivo [2]; 1 h) was 0.09 ± 0.01 %ID/g and the “Uptake in Stomach” value (in vivo [2]; 1 h) was 1.71 ± 0.19 %ID/g. The “%ID excreted in Feces” value (in vivo [2]; 2 h) was 0.69 ± 0.10 %ID, the “%ID excreted in Urine” value (in vivo [2]; 2 h) was 69.0 ± 5.15 %ID and the “Uptake in Blood” value (in vivo [2]; 2 h) was 0.17 ± 0.02 %ID/g. The “Uptake in Bone” value (in vivo [2]; 2 h) was 0.09 ± 0.01 %ID/g, the “Uptake in Intestines (measured without their contents)” value (in vivo [2]; 2 h) was 0.43 ± 0.09 %ID/g and the “Uptake in Kidneys” value (in vivo [2]; 2 h) was 1.63 ± 0.24 %ID/g. For the same compound, the “Uptake in Liver” value (in vivo [2]; 2 h) was 0.53 ± 0.09 %ID/g, the “Uptake in Lungs” value (in vivo [2]; 2 h) was 0.22 ± 0.05 %ID/g and the “Uptake in Pancreas” value (in vivo [2]; 2 h) was 1.25 ± 0.13 %ID/g. For the same compound, the “Uptake in Spleen” value (in vivo [2]; 2 h) was 0.06 ± 0.0 %ID/g and the “Uptake in Stomach” value (in vivo [2]; 2 h) was 0.48 ± 0.06 %ID/g.
With CCCC[C@H](NC(=O)[C@H](Cc1c[nH]cn1)NC(=O)[C@H](CC1CCCCC1)NC(=O)[C@@H](NC(=O)[C@H](C)NC(=O)[C@H](Cc1c[nH]c2ccccc12)NC(=O)[C@H](CCC(N)=O)NC(=O)[C@H](CS)NC(=O)CNC(=O)CNC(=O)c1ccc(NC(=O)CN2CCN(CC(=O)O)CCN(CC(=O)O)CCN(CC(=O)O)CC2)cc1)C(C)C)C(=O)N[C@@H](CCSC)C(N)=O [^68Ga-DOTA-Abz-BN Cyclen, metal not drawn] ({DOTA-4Abz}-GGCQWAV[Cha]H[Nle]M-NH2) the “%ID excreted in Urine” value (in vivo [2]; 1 h) was 70.0 ± 8.60 %ID, the “Uptake in Liver” value (in vivo [2]; 1 h) was 0.68 ± 0.16 %ID/g and the “Uptake in Lungs” value (in vivo [2]; 1 h) was 0.21 ± 0.05 %ID/g. It also gave a dose excreted at 1 h (in vivo [2]; [4]) of 1.01 ± 0.2%, a dose excreted at 2 h (in vivo [2]; [4]) of 0.88 ± 0.12% and a dose excreted at 2 h (in vivo [2]; total radioactivity, %ID excreted in Urine) of 62 ± 9.54%. It also gave a tissue uptake at 1 h (in vivo [2]; total radioactivity, Uptake in Blood) of 0.4 ± 0.11 %ID/g, a tissue uptake at 1 h (in vivo [2]; [5]) of 0.13 ± 0.04 %ID/g and a tissue uptake at 2 h (in vivo [2]; [5]) of 0.09 ± 0.01 %ID/g. It also gave a tissue uptake at 1 h (in vivo [2]; [6]) of 0.85 ± 0.17 %ID/g, a tissue uptake at 2 h (in vivo [2]; [6]) of 0.53 ± 0.14 %ID/g and a tissue uptake at 1 h (in vivo [2]; [7]) of 2.96 ± 0.3 %ID/g. The tissue uptake at 2 h (in vivo [2]; [7]) was 1.88 ± 0.25 %ID/g, the tissue uptake at 2 h (in vivo [2]; total radioactivity, Uptake in Liver) was 0.5 ± 0.07 %ID/g and the tissue uptake at 1 h (in vivo [2]; [8]) was 1.07 ± 0.13 %ID/g. For the same compound, the tissue uptake at 2 h (in vivo [2]; [8]) was 0.88 ± 0.11 %ID/g, the tissue uptake at 1 h (in vivo [2]; [9]) was 0.12 ± 0.02 %ID/g and the tissue uptake at 2 h (in vivo [2]; [9]) was 0.07 ± 0.01 %ID/g. It also gave a tissue uptake at 1 h (in vivo [2]; [10]) of 1.69 ± 0.24 %ID/g, a tissue uptake at 2 h (in vivo [2]; [10]) of 0.45 ± 0.1 %ID/g and a dose excreted at 1 h (in vivo [3]; [11]) of 61 ± 9.93%. The dose excreted at 2 h (in vivo [3]; [11]) was 78 ± 5.89%, the tissue uptake at 1 h (in vivo [3]; Uptake in Blood) was 1 ± 0.16 %ID/g and the tissue uptake at 2 h (in vivo [3]; Uptake in Blood) was 0.55 ± 0.1 %ID/g. For the same compound, the tissue uptake at 1 h (in vivo [3]; [12]) was 0.95 ± 0.27 %ID/g, the tissue uptake at 2 h (in vivo [3]; [12]) was 0.54 ± 0.16 %ID/g and the tissue uptake at 1 h (in vivo [3]; Uptake in Kidneys) was 6.03 ± 1 %ID/g. For the same compound, the tissue uptake at 2 h (in vivo [3]; Uptake in Kidneys) was 5 ± 0.77 %ID/g, the tissue uptake at 1 h (in vivo [3]; Uptake in Liver) was 2.54 ± 0.46 %ID/g and the tissue uptake at 2 h (in vivo [3]; Uptake in Liver) was 2 ± 0.37 %ID/g. For the same compound, the tissue uptake at 1 h (in vivo [3]; Uptake in Lungs) was 2.8 ± 0.55 %ID/g, the tissue uptake at 2 h (in vivo [3]; Uptake in Lungs) was 1.15 ± 0.23 %ID/g and the tissue uptake at 1 h (in vivo [3]; Uptake in Muscle) was 0.32 ± 0.06 %ID/g. The tissue uptake at 2 h (in vivo [3]; Uptake in Muscle) was 0.26 ± 0.05 %ID/g, the tissue uptake at 1 h (in vivo [3]; Uptake in Pancreas) was 2.94 ± 0.43 %ID/g and the tissue uptake at 2 h (in vivo [3]; Uptake in Pancreas) was 1.18 ± 0.31 %ID/g. It also gave a tissue uptake at 1 h (in vivo [3]; Uptake in Spleen) of 0.22 ± 0.07 %ID/g, a tissue uptake at 2 h (in vivo [3]; Uptake in Spleen) of 0.12 ± 0.02 %ID/g and a tissue uptake at 1 h (in vivo [3]; Uptake in Stomach) of 1.34 ± 0.29 %ID/g. It also gave a tissue uptake at 2 h (in vivo [3]; Uptake in Stomach) of 0.49 ± 0.12 %ID/g.
For CCCC[C@H](NC(=O)[C@H](Cc1c[nH]cn1)NC(=O)[C@H](CC1CCCCC1)NC(=O)[C@@H](NC(=O)[C@H](C)NC(=O)[C@H](Cc1c[nH]c2ccccc12)NC(=O)[C@H](CCC(N)=O)NC(=O)[C@H](CS)NC(=O)CNC(=O)CNC(=O)c1ccc(NC(=O)CN2CCN(CC(=O)O)CCN(CC(=O)O)CCN(CC(=O)O)CC2)cc1)C(C)C)C(=O)N[C@@H](CCSC)C(N)=O [^68Ga-DOTA-Abz-BN Tris-, metal not drawn] ({DOTA-4Abz}-GGCQWAV[Cha]H[Nle]M-NH2), the “Log P (octanol/water)” value [1] was “− 1.04 ± 0.10”, the “%ID excreted in Feces” value (in vivo [2]; 1 h) was 0.90 ± 0.10 %ID and the “%ID excreted in Urine” value (in vivo [2]; 1 h) was 43.0 ± 8.70 %ID. For the same compound, the “Uptake in Blood” value (in vivo [2]; 1 h) was 0.66 ± 0.13 %ID/g, the “Uptake in Bone” value (in vivo [2]; 1 h) was 0.22 ± 0.05 %ID/g and the “Uptake in Intestines (measured without their contents)” value (in vivo [2]; 1 h) was 0.79 ± 0.16 %ID/g. The “Uptake in Kidneys” value (in vivo [2]; 1 h) was 4.0 ± 0.82 %ID/g, the “Uptake in Liver” value (in vivo [2]; 1 h) was 1.59 ± 0.23 %ID/g and the “Uptake in Lungs” value (in vivo [2]; 1 h) was 0.58 ± 0.10 %ID/g. The “Uptake in Pancreas” value (in vivo [2]; 1 h) was 1.48 ± 0.12 %ID/g, the “Uptake in Spleen” value (in vivo [2]; 1 h) was 0.11 ± 0.01 %ID/g and the “Uptake in Stomach” value (in vivo [2]; 1 h) was 1.82 ± 0.36 %ID/g. For the same compound, the “%ID excreted in Feces” value (in vivo [2]; 2 h) was 0.59 ± 0.08 %ID, the “%ID excreted in Urine” value (in vivo [2]; 2 h) was 50.0 ± 3.45 %ID and the “Uptake in Blood” value (in vivo [2]; 2 h) was 0.31 ± 0.05 %ID/g. The “Uptake in Bone” value (in vivo [2]; 2 h) was 0.12 ± 0.01 %ID/g, the “Uptake in Intestines (measured without their contents)” value (in vivo [2]; 2 h) was 0.61 ± 0.09 %ID/g and the “Uptake in Kidneys” value (in vivo [2]; 2 h) was 2.86 ± 0.37 %ID/g. The “Uptake in Liver” value (in vivo [2]; 2 h) was 0.91 ± 0.15 %ID/g, the “Uptake in Lungs” value (in vivo [2]; 2 h) was 0.40 ± 0.08 %ID/g and the “Uptake in Pancreas” value (in vivo [2]; 2 h) was 0.97 ± 0.05 %ID/g. The “Uptake in Spleen” value (in vivo [2]; 2 h) was 0.10 ± 0.01 %ID/g and the “Uptake in Stomach” value (in vivo [2]; 2 h) was 0.52 ± 0.12 %ID/g.
